{
  "source": "patent US20170298146A1",
  "about": "(MODIQUEST B V, published 2017)",
  "binders": {"B1": {"name": "RhmAb2.102 (antibody, human IgG1, lambda)", "heavy": "not shown", "light": "QSVLTQPPSMSAAPGQKVTISCSGSSSNIGNNYVSWYQQVPGTAPKLLIYDDNKRPSGIPGRFSGSKSATSATLGITGLQAGDEADYYCGSWDDNLSVVLFGGGTKLTVLGQPKAAPSVTLFPPSSEELQANKATLVCLISDFYPGAVTVAWKADSSPVKAGVETTTPSKQSNNKYAASSYLSLTPEQWKSHRSYSCQVTHEGSTVEKTVAPTECS", "notes": "Human IgG1 lambda; also called Rhm2.102"}},
  "key": {"[1]": {"molecular_target": "T1, huPAD2 deiminated human recombinant histone H3 (human)", "T1 construct": "also called H3/p2", "assay": "ELISA, 10 ug/well", "description": "(§1) CFC-1 and CFC-0 were coated at the same concentration and served as positive and negative controls, respectively, for specific anti-citrulline reactivity and as coating controls. Non-coated wells were used to test for aspecific binding of the antibodies. […] Detection of bound anti-citrulline antibodies was performed by incubating the wells with rabbit-anti-human-HRP (1:2000) for one hour at RT followed by incubation with TMB substrate. The resulting OD (y-axis) is a measure for antibody binding. H1=recombinant histone 1; H1/p2=huPAD2 recombinant histone 1; H1/p4=huPAD4 recombinant histone 1 and so forth (x-axis)."}, "[2]": {"molecular_target": "T2, human recombinant histone H2A (human)", "T2 construct": "Non-deiminated", "assay": "ELISA, 10 ug/well", "description": "as §1"}, "[3]": {"molecular_target": "T3, huPAD2 deiminated human recombinant histone H2A (human)", "T3 construct": "also called H2A/p2", "assay": "ELISA, 10 ug/well", "description": "as §1"}, "CFC-1 [4]": {"molecular_target": "T4, CFC-1", "T4 construct": "Positive control for anti-citrulline reactivity; also called cfc1 XG", "assay": "ELISA, 10 ug/well", "description": "as §1"}, "[5]": {"molecular_target": "T5, human recombinant histone H2B (human)", "T5 construct": "Non-deiminated", "assay": "ELISA, 10 ug/well", "description": "as §1"}, "[6]": {"molecular_target": "T6, huPAD4 deiminated human recombinant histone H3 (human)", "T6 construct": "also called H3/p4", "assay": "ELISA, 10 ug/well", "description": "as §1"}, "[7]": {"molecular_target": "T7, huPAD2 deiminated human recombinant histone H2B (human)", "T7 construct": "also called H2B/p2", "assay": "ELISA, 10 ug/well", "description": "as §1"}, "[8]": {"molecular_target": "T8, huPAD4 deiminated human recombinant histone H2A (human)", "T8 construct": "also called H2A/p4; huPAD4 deiminated histone 2A", "assay": "ELISA, 10 ug/well", "description": "as §1"}, "[9]": {"molecular_target": "T9, huPAD4 deiminated human recombinant histone H2B (human)", "T9 construct": "also called H2B/p4", "assay": "ELISA, 10 ug/well", "description": "as §1"}, "[10]": {"molecular_target": "T10, human recombinant histone H4 (human, UniProt P62805 2-103)", "assay": "ELISA, 10 ug/well", "description": "as §1"}, "huFibα XH [11]": {"molecular_target": "T11, huFibα XH (human, X at position 15 is citrulline; biotin label)", "T11 peptide": "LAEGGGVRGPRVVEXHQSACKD", "assay": "peptide ELISA, 0.000128 ug/well", "description": "(§2) Biotin and citrulline-containing peptides derived from fibrinogen and vimentin were immobilized on NEUTRAVIDIN®-coated 96-well ELISA plates (0.3 μg/well). CFC-1 and CFC-0 were coated at the same concentration and served as positive and negative controls respectively for specific anti-citrulline reactivity and as coating controls. Non-coated wells were used to test for aspecific binding of the antibodies. […] Detection of bound anti-citrulline antibodies was performed by incubating the wells with rabbit-anti-human-HRP (1:2000) for one hour at RT followed by incubation with TMB substrate. The resulting OD (y-axis) is a measure for antibody binding.\n(§3) Biotin-labeled and citrulline-containing fibrinogen and vimentin peptides (Table 5) were also tested for reactivity with the therapeutic antibodies. Peptides were coated on 96-well NEUTRAVIDIN®-ELISA plates."}, "CFC-1 [12]": {"molecular_target": "T4, CFC-1", "assay": "peptide ELISA, 0.000128 ug/well", "description": "as §2, §3"}, "msFibα XG [13]": {"molecular_target": "T12, msFibα XG (mouse, X at position 8 is citrulline; biotin label)", "T12 peptide": "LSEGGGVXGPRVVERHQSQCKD", "assay": "peptide ELISA, 0.000128 ug/well", "description": "as §2, §3"}, "msFibα XH": {"molecular_target": "T13, msFibα XH (mouse, X at position 15 is citrulline; biotin label)", "T13 peptide": "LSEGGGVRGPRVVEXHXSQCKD", "assay": "peptide ELISA, 0.4 ug/well", "description": "as §2, §3"}, "huFibα XH [14]": {"molecular_target": "T11, huFibα XH", "assay": "peptide ELISA, 0.4 ug/well", "description": "as §2, §3"}, "huFibα XG": {"molecular_target": "T14, huFibα XG (human, X at position 8 is citrulline; biotin label)", "T14 peptide": "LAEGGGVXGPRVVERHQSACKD", "assay": "peptide ELISA, 0.4 ug/well", "description": "as §2, §3"}, "CFC-1 [15]": {"molecular_target": "T4, CFC-1", "assay": "peptide ELISA, 0.4 ug/well", "description": "as §2, §3"}, "msVim XS/XL": {"molecular_target": "T15, msVim XS/XL (mouse, also: biotin label)", "T15 construct": "also called mouse vimentin peptide", "T15 peptide": "YVT[Cit]SSAV[Cit]L[Cit]SSVP", "assay": "peptide ELISA, 0.4 ug/well", "description": "as §2, §3"}, "msFibβ XG": {"molecular_target": "T16, msFibβ XG (mouse, also: biotin label)", "T16 peptide": "EPTDSLDA[Cit]GHRPVDRR", "assay": "peptide ELISA, 0.4 ug/well", "description": "as §2, §3"}, "msFibα XG [16]": {"molecular_target": "T12, msFibα XG", "assay": "peptide ELISA, 0.4 ug/well", "description": "as §2, §3"}, "[17]": {"molecular_target": "T1, huPAD2 deiminated human recombinant …", "assay": "ELISA, 0.0032 ug/well", "description": "as §1, with “Deiminated, as well as non-deiminated histones, were immobilized on 96-well ELISA plates (0.3 μg/well). CFC-1” for “CFC-1”"}, "[18]": {"molecular_target": "T3, huPAD2 deiminated human recombinant …", "assay": "ELISA, 0.0032 ug/well", "description": "as §1, with “Deiminated, as well as non-deiminated histones, were immobilized on 96-well ELISA plates (0.3 μg/well). CFC-1” for “CFC-1”"}, "CFC-1 [19]": {"molecular_target": "T4, CFC-1", "assay": "ELISA, 0.0032 ug/well", "description": "as §1, with “Deiminated, as well as non-deiminated histones, were immobilized on 96-well ELISA plates (0.3 μg/well). CFC-1” for “CFC-1”"}, "[20]": {"molecular_target": "T5, human recombinant histone H2B", "assay": "ELISA, 0.0032 ug/well", "description": "as §1, with “Deiminated, as well as non-deiminated histones, were immobilized on 96-well ELISA plates (0.3 μg/well). CFC-1” for “CFC-1”"}, "[21]": {"molecular_target": "T6, huPAD4 deiminated human recombinant …", "assay": "ELISA, 0.0032 ug/well", "description": "as §1, with “Deiminated, as well as non-deiminated histones, were immobilized on 96-well ELISA plates (0.3 μg/well). CFC-1” for “CFC-1”"}, "[22]": {"molecular_target": "T7, huPAD2 deiminated human recombinant …", "assay": "ELISA, 0.0032 ug/well", "description": "as §1, with “Deiminated, as well as non-deiminated histones, were immobilized on 96-well ELISA plates (0.3 μg/well). CFC-1” for “CFC-1”"}, "[23]": {"molecular_target": "T8, huPAD4 deiminated human recombinant …", "assay": "ELISA, 0.0032 ug/well", "description": "as §1, with “Deiminated, as well as non-deiminated histones, were immobilized on 96-well ELISA plates (0.3 μg/well). CFC-1” for “CFC-1”"}, "[24]": {"molecular_target": "T9, huPAD4 deiminated human recombinant …", "assay": "ELISA, 0.0032 ug/well", "description": "as §1, with “Deiminated, as well as non-deiminated histones, were immobilized on 96-well ELISA plates (0.3 μg/well). CFC-1” for “CFC-1”"}, "[25]": {"molecular_target": "T10, human recombinant histone H4", "assay": "ELISA, 0.0032 ug/well", "description": "as §1, with “Deiminated, as well as non-deiminated histones, were immobilized on 96-well ELISA plates (0.3 μg/well). CFC-1” for “CFC-1”"}},
  "note": "Non-standard residues stand in square brackets, D forms with d. No end group written: not given here. Cit = NC(=O)NCCC[C@H](N)C(=O)O",
  "data": [
    {"binder": "B1", "values": [
      {"measurement": "OD", "setting": "[1]", "value": 2.44, "unit": "OD"},
      {"measurement": "OD", "setting": "[2]", "value": 0.428, "unit": "OD"},
      {"measurement": "OD", "setting": "[3]", "value": 3.41, "unit": "OD"},
      {"measurement": "OD", "setting": "CFC-1 [4]", "value": 3.48, "unit": "OD"},
      {"measurement": "OD", "setting": "[5]", "value": 0.247, "unit": "OD"},
      {"measurement": "OD", "setting": "[6]", "value": 1.31, "unit": "OD"},
      {"measurement": "OD", "setting": "[7]", "value": 0.31, "unit": "OD"},
      {"measurement": "OD", "setting": "[8]", "value": 3.42, "unit": "OD"},
      {"measurement": "OD", "setting": "[9]", "value": 0.229, "unit": "OD"},
      {"measurement": "OD", "setting": "[10]", "value": 0.825, "unit": "OD"},
      {"measurement": "OD", "setting": "huFibα XH [11]", "value": 0.12, "unit": "OD"},
      {"measurement": "OD", "setting": "CFC-1 [12]", "value": 0.288, "unit": "OD"},
      {"measurement": "OD", "setting": "msFibα XG [13]", "value": 0.119, "unit": "OD"},
      {"measurement": "OD", "setting": "msFibα XH", "value": 0.076, "unit": "OD"},
      {"measurement": "OD", "setting": "huFibα XH [14]", "value": 0.09, "unit": "OD"},
      {"measurement": "OD", "setting": "huFibα XG", "value": 0.521, "unit": "OD"},
      {"measurement": "OD", "setting": "CFC-1 [15]", "value": 3.79, "unit": "OD"},
      {"measurement": "OD", "setting": "msVim XS/XL", "value": 1.45, "unit": "OD"},
      {"measurement": "OD", "setting": "msFibβ XG", "value": 1.67, "unit": "OD"},
      {"measurement": "OD", "setting": "msFibα XG [16]", "value": 0.773, "unit": "OD"},
      {"measurement": "OD", "setting": "[17]", "value": 0.08, "unit": "OD"},
      {"measurement": "OD", "setting": "[18]", "value": 0.161, "unit": "OD"},
      {"measurement": "OD", "setting": "CFC-1 [19]", "value": 0.178, "unit": "OD"},
      {"measurement": "OD", "setting": "[20]", "value": 0.05, "unit": "OD"},
      {"measurement": "OD", "setting": "[21]", "value": 0.065, "unit": "OD"},
      {"measurement": "OD", "setting": "[22]", "value": 0.052, "unit": "OD"},
      {"measurement": "OD", "setting": "[23]", "value": 0.135, "unit": "OD"},
      {"measurement": "OD", "setting": "[24]", "value": 0.052, "unit": "OD"},
      {"measurement": "OD", "setting": "[25]", "value": 0.06, "unit": "OD"}
    ]}
  ]
}
